What was measured:
Assay in all cases: cell-based or functional assay
[1] = molecular target: HIV-1 subtype A envelope Q23.17 (HIV-1 subtype A)
[2] = molecular target: HIV-1 subtype C envelope DU151.2 (HIV-1 subtype C)
[3] = molecular target: HIV-1 subtype C envelope CAP206.8 (HIV-1 subtype C)
[4] = molecular target: HIV-1 subtype C envelope Du156.12 (HIV-1 subtype C)
[5] = molecular target: HIV-1 subtype B envelope JR-FL (HIV-1 subtype B)
[6] = molecular target: HIV-1 subtype B envelope PVO.4 (HIV-1 subtype B)
[7] = molecular target: GRFT-resistant envelope Du179 GRFT c17 (R)
[8] = molecular target: HIV-1 subtype B envelope QH0692.42 (HIV-1 subtype B)
[9] = molecular target: GRFT-resistant envelope Du156R18 (R)
[10] = molecular target: Env of HIV-1RF virus (HIV-1 RF)
[11] = molecular target: HIV-1 subtype C envelope Du179.14 (HIV-1 subtype C)
[12] = molecular target: HIV-1 subtype A envelope Q168.a2 (HIV-1 subtype A)
[13] = molecular target: HIV-1 subtype C envelope COT6.15 (HIV-1 subtype C)
[14] = molecular target: HIV-1 subtype B envelope CAAN5342.A2 (HIV-1 subtype B)

Chain of griffithsin (GRFT), native domain-swapped dimer (P84801 whole entry X31A, the tested form may be a part): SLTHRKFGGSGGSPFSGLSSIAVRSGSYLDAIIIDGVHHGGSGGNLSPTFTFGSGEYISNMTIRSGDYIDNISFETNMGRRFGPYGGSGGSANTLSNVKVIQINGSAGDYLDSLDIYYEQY

griffithsin (GRFT), native domain-swapped dimer (from UniProt P84801 1-121)
IC50 (pseudovirus neutralization, JC53bl-13 cells) [1]: 1.19 nM
IC50 (pseudovirus neutralization, JC53bl-13 cells) [2]: 1.49 nM
IC50 (pseudovirus neutralization, JC53bl-13 cells) [3]: 2.14 nM
IC50 (pseudovirus neutralization, JC53bl-13 cells) [4]: 0.0324 nM
IC50 (pseudovirus neutralization, JC53bl-13 cells) [5]: 0.922 nM
IC50 (pseudovirus neutralization, JC53bl-13 cells) [6]: 0.037 nM
fold reduction in activity between the WT (Du179.14) and R viruses [7]: > 82 fold
IC50 (pseudovirus neutralization, JC53bl-13 cells) [8]: 0.0473 nM
IC50 (pseudovirus neutralization, JC53bl-13 cells) [9]: 9.14 nM
fold reduction in activity between the WT (Du156.12) and R viruses [9]: 282 fold
Anti-HIV EC50 (XTT cytopathicity assay, HIV-1RF, CEM-SS cells) [10]: 0.0138 nM
IC50 (pseudovirus neutralization, JC53bl-13 cells) [11]: 0.606 nM
IC50 (pseudovirus neutralization, JC53bl-13 cells) [12]: 3.8 nM
IC50 (pseudovirus neutralization, JC53bl-13 cells) [13]: 0.734 nM
IC50 (pseudovirus neutralization, JC53bl-13 cells) [14]: 7.34 nM
